Biological target: insulin receptor extracellular domain, short isoform (IR-A)
Test: SPR

Kd: > 122 nM
Substance: insulin (from UniProt P01308 25-54; P01308 90-110) (ligand)

Source: PMC5985231
